Results reported in patent US20060263802A1 (CRUCELL HOLLAND B V, published 2006).

Legend:
Experiment in all cases: PEPSCAN ELISA, looped 15-mer, 10 ug/ml
[1] = molecular target: looped peptide … (rabies virus strain ERA)
[2] = molecular target: looped peptide … (rabies virus strain ERA); remark: listed apart in the source
[3] = molecular target: looped peptide … (rabies virus strain ERA); remark: listed apart in the source
[4] = molecular target: looped peptide … (rabies virus strain ERA); remark: listed apart in the source
[5] = molecular target: looped peptide … (rabies virus strain ERA); remark: listed apart in the source
[6] = molecular target: looped peptide … (rabies virus strain ERA); remark: listed apart in the source
[7] = molecular target: looped peptide … (rabies virus strain ERA); remark: listed apart in the source
[8] = molecular target: looped peptide … (rabies virus strain ERA); remark: listed apart in the source
[9] = molecular target: looped peptide … (rabies virus strain ERA); remark: listed apart in the source
[10] = molecular target: looped peptide … (rabies virus strain ERA); remark: listed apart in the source
[11] = molecular target: looped peptide … (rabies virus strain ERA); remark: listed apart in the source
[12] = molecular target: looped peptide … (rabies virus strain ERA); remark: listed apart in the source
[13] = molecular target: looped peptide … (rabies virus strain ERA); remark: listed apart in the source
[14] = molecular target: looped peptide … (rabies virus strain ERA); remark: listed apart in the source
[15] = molecular target: looped peptide … (rabies virus strain ERA); remark: listed apart in the source
[16] = molecular target: looped peptide … (rabies virus strain ERA); remark: listed apart in the source
[17] = molecular target: looped peptide … (rabies virus strain ERA); remark: listed apart in the source
[18] = molecular target: looped peptide … (rabies virus strain ERA); remark: listed apart in the source
[19] = molecular target: looped peptide … (rabies virus strain ERA); remark: listed apart in the source
[20] = molecular target: looped peptide … (rabies virus strain ERA); remark: listed apart in the source
[21] = molecular target: looped peptide … (rabies virus strain ERA); remark: listed apart in the source
[22] = molecular target: looped peptide … (rabies virus strain ERA); remark: listed apart in the source
[23] = molecular target: looped peptide … (rabies virus strain ERA); remark: listed apart in the source
[24] = molecular target: looped peptide … (rabies virus strain ERA); remark: listed apart in the source
[25] = molecular target: looped peptide … (rabies virus strain ERA); remark: listed apart in the source
[26] = molecular target: looped peptide … (rabies virus strain ERA); remark: listed apart in the source
[27] = molecular target: looped peptide … (rabies virus strain ERA); remark: listed apart in the source
[28] = molecular target: looped peptide … (rabies virus strain ERA); remark: listed apart in the source
[29] = molecular target: looped peptide … (rabies virus strain ERA); remark: listed apart in the source
[30] = molecular target: looped peptide … (rabies virus strain ERA); remark: listed apart in the source
[31] = molecular target: looped peptide … (rabies virus strain ERA); remark: listed apart in the source
[32] = molecular target: looped peptide … (rabies virus strain ERA); remark: listed apart in the source
[33] = molecular target: looped peptide … (rabies virus strain ERA); remark: listed apart in the source
[34] = molecular target: looped peptide … (rabies virus strain ERA); remark: listed apart in the source
[35] = molecular target: looped peptide … (rabies virus strain ERA); remark: listed apart in the source
[36] = molecular target: looped peptide … (rabies virus strain ERA); remark: listed apart in the source
[37] = molecular target: looped peptide … (rabies virus strain ERA); remark: listed apart in the source
[38] = molecular target: looped peptide … (rabies virus strain ERA); remark: listed apart in the source
[39] = molecular target: looped peptide … (rabies virus strain ERA); remark: listed apart in the source
[40] = molecular target: looped peptide … (rabies virus strain ERA); remark: listed apart in the source
[41] = molecular target: looped peptide … (rabies virus strain ERA); remark: listed apart in the source
[42] = molecular target: looped peptide … (rabies virus strain ERA); remark: listed apart in the source
[43] = molecular target: looped peptide … (rabies virus strain ERA); remark: listed apart in the source
[44] = molecular target: looped peptide … (rabies virus strain ERA); remark: listed apart in the source
[45] = molecular target: looped peptide … (rabies virus strain ERA); remark: listed apart in the source
[46] = molecular target: looped peptide … (rabies virus strain ERA); remark: listed apart in the source
[47] = molecular target: looped peptide … (rabies virus strain ERA); remark: listed apart in the source
[48] = molecular target: looped peptide … (rabies virus strain ERA); remark: listed apart in the source
[49] = molecular target: looped peptide … (rabies virus strain ERA); remark: listed apart in the source
[50] = molecular target: looped peptide … (rabies virus strain ERA); remark: listed apart in the source
[51] = molecular target: looped peptide … (rabies virus strain ERA); remark: listed apart in the source
[52] = molecular target: looped peptide … (rabies virus strain ERA); remark: listed apart in the source
[53] = molecular target: looped peptide … (rabies virus strain ERA); remark: listed apart in the source
[54] = molecular target: looped peptide … (rabies virus strain ERA); remark: listed apart in the source
[55] = molecular target: looped peptide … (rabies virus strain ERA); remark: listed apart in the source
[56] = molecular target: looped peptide … (rabies virus strain ERA); remark: listed apart in the source
[57] = molecular target: looped peptide … (rabies virus strain ERA); remark: listed apart in the source
[58] = molecular target: looped peptide … (rabies virus strain ERA); remark: listed apart in the source
[59] = molecular target: looped peptide … (rabies virus strain ERA); remark: listed apart in the source
[60] = molecular target: looped peptide … (rabies virus strain ERA); remark: listed apart in the source
[61] = molecular target: looped peptide … (rabies virus strain ERA); remark: listed apart in the source
[62] = molecular target: looped peptide … (rabies virus strain ERA); remark: listed apart in the source
[63] = molecular target: looped peptide … (rabies virus strain ERA); remark: listed apart in the source
[64] = molecular target: looped peptide … (rabies virus strain ERA); remark: listed apart in the source
[65] = molecular target: looped peptide … (rabies virus strain ERA); remark: listed apart in the source
[66] = molecular target: looped peptide … (rabies virus strain ERA); remark: listed apart in the source
[67] = molecular target: looped peptide … (rabies virus strain ERA); remark: listed apart in the source
[68] = molecular target: looped peptide … (rabies virus strain ERA); remark: listed apart in the source
[69] = molecular target: looped peptide … (rabies virus strain ERA); remark: listed apart in the source
[70] = molecular target: looped peptide … (rabies virus strain ERA); remark: listed apart in the source
[71] = molecular target: looped peptide … (rabies virus strain ERA); remark: listed apart in the source
[72] = molecular target: looped peptide … (rabies virus strain ERA); remark: listed apart in the source
[73] = molecular target: looped peptide … (rabies virus strain ERA); remark: listed apart in the source
[74] = molecular target: looped peptide … (rabies virus strain ERA); remark: listed apart in the source
[75] = molecular target: looped peptide … (rabies virus strain ERA); remark: listed apart in the source
[76] = molecular target: looped peptide … (rabies virus strain ERA); remark: listed apart in the source
[77] = molecular target: looped peptide … (rabies virus strain ERA); remark: listed apart in the source
[78] = molecular target: looped peptide … (rabies virus strain ERA); remark: listed apart in the source
[79] = molecular target: looped peptide … (rabies virus strain ERA); remark: listed apart in the source
[80] = molecular target: looped peptide … (rabies virus strain ERA); remark: listed apart in the source
[81] = molecular target: looped peptide … (rabies virus strain ERA); remark: listed apart in the source
[82] = molecular target: looped peptide … (rabies virus strain ERA); remark: listed apart in the source
[83] = molecular target: looped peptide … (rabies virus strain ERA); remark: listed apart in the source
[84] = molecular target: looped peptide … (rabies virus strain ERA); remark: listed apart in the source
[85] = molecular target: looped peptide … (rabies virus strain ERA); remark: listed apart in the source
[86] = molecular target: looped peptide … (rabies virus strain ERA); remark: listed apart in the source
[87] = molecular target: looped peptide … (rabies virus strain ERA); remark: listed apart in the source
[88] = molecular target: looped peptide … (rabies virus strain ERA); remark: listed apart in the source
[89] = molecular target: looped peptide … (rabies virus strain ERA); remark: listed apart in the source
[90] = molecular target: looped peptide … (rabies virus strain ERA); remark: listed apart in the source
[91] = molecular target: looped peptide … (rabies virus strain ERA); remark: listed apart in the source
[92] = molecular target: looped peptide … (rabies virus strain ERA); remark: listed apart in the source
[93] = molecular target: looped peptide … (rabies virus strain ERA); remark: listed apart in the source
[94] = molecular target: looped peptide … (rabies virus strain ERA); remark: listed apart in the source
[95] = molecular target: looped peptide … (rabies virus strain ERA); remark: listed apart in the source
[96] = molecular target: looped peptide … (rabies virus strain ERA); remark: listed apart in the source
[97] = molecular target: looped peptide … (rabies virus strain ERA); remark: listed apart in the source
[98] = molecular target: looped peptide … (rabies virus strain ERA); remark: listed apart in the source

B1: human monoclonal antibody CRJA (antibody, V domains shown)
VH: EVQLLESGGGLVQPGGSLRLSCAASGFTFSNYAMSWVRQAPGKGLEWVSAISASGHSTYLADSVKGRFTISRDNSKNTLYLQMNSLRAEDTAVYYCAKDREVTMIVVLNGGFDYWGQGTRVTVSS
VL: EIVLTQSPATLSLSPGERATLACRASQTASRYLAWYQQKPGQAPRLLIYDTSNRATGIPARFSGSGSGTDFTLSISSLEPEDFAVYYCQQRFNWPWTFGQGTKVEFK
B1 gave an OD value [1] of 93, an OD value [2] of 49 and an OD value [3] of 82. It also gave an OD value [4] of 108, an OD value [5] of 104 and an OD value [6] of 88. The OD value [7] was 90, the OD value [8] was 100 and the OD value [9] was 55. It also gave an OD value [10] of 100, an OD value [11] of 96 and an OD value [12] of 100. It also gave an OD value [13] of 104, an OD value [14] of 75 and an OD value [15] of 110. The OD value [16] was 73, the OD value [17] was 118 and the OD value [18] was 45. It also gave an OD value [19] of 79, an OD value [20] of 90 and an OD value [21] of 71. For the same binder, the OD value [22] was 43, the OD value [23] was 100 and the OD value [24] was 72. It also gave an OD value [25] of 110, an OD value [26] of 84 and an OD value [27] of 59. The OD value [28] was 108, the OD value [29] was 87 and the OD value [30] was 92. For the same binder, the OD value [31] was 98, the OD value [32] was 92 and the OD value [33] was 86. The OD value [34] was 93, the OD value [35] was 88 and the OD value [36] was 66. The OD value [37] was 82, the OD value [38] was 125 and the OD value [39] was 105. For the same binder, the OD value [40] was 51, the OD value [41] was 90 and the OD value [42] was 74. For the same binder, the OD value [43] was 93, the OD value [44] was 90 and the OD value [45] was 96. For the same binder, the OD value [46] was 71, the OD value [47] was 96 and the OD value [48] was 104. It also gave an OD value [49] of 123, an OD value [50] of 100 and an OD value [51] of 110. It also gave an OD value [52] of 41, an OD value [53] of 104 and an OD value [54] of 56. It also gave an OD value [55] of 94, an OD value [56] of 100 and an OD value [57] of 71. It also gave an OD value [58] of 110, an OD value [59] of 88 and an OD value [60] of 98. It also gave an OD value [61] of 90, an OD value [62] of 88 and an OD value [63] of 57. For the same binder, the OD value [64] was 104, the OD value [65] was 113 and the OD value [66] was 113. The OD value [67] was 50, the OD value [68] was 120 and the OD value [69] was 92. The OD value [70] was 96, the OD value [71] was 90 and the OD value [72] was 94. The OD value [73] was 90, the OD value [74] was 92 and the OD value [75] was 90. It also gave an OD value [76] of 90, an OD value [77] of 96 and an OD value [78] of 46. The OD value [79] was 93, the OD value [80] was 113 and the OD value [81] was 84. For the same binder, the OD value [82] was 78, the OD value [83] was 69 and the OD value [84] was 83. The OD value [85] was 113, the OD value [86] was 51 and the OD value [87] was 62. For the same binder, the OD value [88] was 93, the OD value [89] was 64 and the OD value [90] was 129. For the same binder, the OD value [91] was 49, the OD value [92] was 72 and the OD value [93] was 112. For the same binder, the OD value [94] was 88, the OD value [95] was 86 and the OD value [96] was 80. For the same binder, the OD value [97] was 92 and the OD value [98] was 92.
